Positions count from the first letter of the chain named. One block for each binder: values may come before it.
Columns and labels:
[1] = biological target: T1, LAG-3 extracellular domain with a Flag tag (human, UniProt P18627 23-434); assay: SPR (Biacore), antibody captured on anti-human capture chip, LAG-3-Flag in flow
T1 construct: also called LAG-3-Flag; LAG-3-Flag antigen
T1 sequence: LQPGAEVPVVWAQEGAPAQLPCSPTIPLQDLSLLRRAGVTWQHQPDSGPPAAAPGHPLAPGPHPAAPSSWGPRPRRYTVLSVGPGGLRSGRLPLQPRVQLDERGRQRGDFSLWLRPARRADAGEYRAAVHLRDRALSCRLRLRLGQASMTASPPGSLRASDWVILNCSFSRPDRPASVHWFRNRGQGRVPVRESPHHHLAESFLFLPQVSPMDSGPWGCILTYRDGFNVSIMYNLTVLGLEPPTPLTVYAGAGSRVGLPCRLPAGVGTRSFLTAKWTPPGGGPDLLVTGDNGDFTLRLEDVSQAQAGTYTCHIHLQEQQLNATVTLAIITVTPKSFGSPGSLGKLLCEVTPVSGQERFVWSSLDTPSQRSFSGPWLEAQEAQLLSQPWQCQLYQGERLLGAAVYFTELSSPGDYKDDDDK
Description: 2. […] Then, the LAG-3-Flag antigen (produced in-house, SEQ ID NO:1) was flowed through the surface of the biochip, and the reaction signal was detected real time using a Biacore instrument to obtain the binding and dissociation curves, the value of affinity was obtained by fitting, see table 10 below. After each cycle of dissociation was finished in the experiment, the biochip was washed and regenerated with a regeneration solution provided in the human anti-capture kit.

[2] = biological target: T2, Fusion protein of LAG-3 extracellular region and hIgG1 Fc (human); assay: competition: biotin-LAG-3-Fc binding to fixed Daudi cells, antibody titrated
T2 construct: Limits of the signal peptide are marked only by lost underlining; also called LAG-3-Fc; LAG-3-Fc fusion protein
Procedure: Daudi cells (human leukemia cells, purchased from the cell bank in Chinese Academy of Sciences) were seeded in 96-well plate with a density of 3×10⁵/well. After centrifugation at 1000 rpm, the supernatant was discarded and then the plate was fixed with 4% PFA for 30 min at room temperature. The plate was washed 4 times with PBS after discarding the fixed solution, and the plate was blocked with 200 μl/well of blocking solution containing 5% skim milk (Bright Dairy, skim milk powder) diluted in PBS, and incubated at 37° C. for 2.5 hours. After blocking, the blocking solution was discarded and the plate was washed 5 times with PBST buffer (pH7.4 PBS containing 0.05% tween-20), added with 50 μl/well mixture of biotin-labeled (Biotin labeling kit, Dojindo Chemical, Cat No. LK03) LAG-3-Fc fusion protein (produced in-house, SEQ ID NO: 3) and gradient concentrations of the antibody to be tested, wherein the biotin-labeled LAG-3-Fc fusion protein has been diluted with sample diluent (PH7.4 PBS containing 1% BSA) at a final concentration of 0.4 μg/ml, and pre-mixed for an hour, then the plate was incubated at 37° C. for 1 h. The reaction solution was discarded and the plate was washed 5 times with PBST after incubation, 50 μl/well of HRP-labeled Streptavidin (Sigma, Cat No. 52438) diluted with sample diluent was added, and the plate was incubated at 37° C. for 1 h. After washing the plate 5 times with PBST, 50 μl/well of TMB chromogenic substrate (KPL, Cat No. 52-00-03) was added to each well, and incubated at room temperature for 5-15 min, the reaction was stopped by the addition of 50 μl 1M H₂SO₄ to each well. The OD value at a wavelength of 450 nm was read on NOVOStar microplate reader, and then the activity of the LAG-3 antibody in blocking the binding of the antigen to Daudi cells was calculated.

[3] = biological target: T3, Fusion protein of LAG-3 extracellular region and mIgG2a Fc (human); assay: ELISA, LAG-3-mFc captured by anti-mouse Fc on plate (which fusion: inferred)
T3 construct: Limits of the signal peptide are marked only by lost underlining; also called LAG-3-mFc; LAG-3-mFc fusion protein
T3 chain: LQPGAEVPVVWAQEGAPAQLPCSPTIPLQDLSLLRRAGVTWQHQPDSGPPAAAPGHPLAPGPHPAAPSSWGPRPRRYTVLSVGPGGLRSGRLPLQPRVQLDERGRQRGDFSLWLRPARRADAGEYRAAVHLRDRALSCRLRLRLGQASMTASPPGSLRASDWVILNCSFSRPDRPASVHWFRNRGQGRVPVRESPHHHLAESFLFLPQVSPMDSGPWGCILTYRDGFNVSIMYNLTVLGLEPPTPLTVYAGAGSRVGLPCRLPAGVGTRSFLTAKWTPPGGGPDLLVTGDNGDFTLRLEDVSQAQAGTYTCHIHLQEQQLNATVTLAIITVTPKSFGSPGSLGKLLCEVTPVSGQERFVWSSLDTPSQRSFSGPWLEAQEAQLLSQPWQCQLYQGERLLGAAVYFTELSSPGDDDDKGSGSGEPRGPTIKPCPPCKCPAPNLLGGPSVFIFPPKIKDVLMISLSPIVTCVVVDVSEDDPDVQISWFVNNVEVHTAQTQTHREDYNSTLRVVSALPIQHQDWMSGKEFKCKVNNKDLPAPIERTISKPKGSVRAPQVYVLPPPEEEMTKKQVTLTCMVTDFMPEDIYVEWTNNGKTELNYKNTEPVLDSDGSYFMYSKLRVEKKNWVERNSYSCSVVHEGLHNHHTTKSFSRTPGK
Description: The binding ability of anti-LAG-3 antibody to human LAG-3 protein was detected by ELISA assay. LAG-3 fusion protein with Fc or mFc tag was immobilized into 96-well microtiter plate by binding to anti-Fc or anti-mFc antibody coated on the microtiter plate, the strength of the signal after the addition of the antibody was used to determine the binding activity of the antibody to LAG-3, the specific experimental method is as follows.
The goat anti-human Fc antibody (Jackson Immuno Research, Cat No. 109-005-008) or goat anti-mouse Fc antibody (Sigma, Cat No. M3534-1ML) was diluted to a concentration of 2 μg/ml with PBS buffer at pH 7.4 (Sigma, Cat No. P4417-100TAB), and added to a 96-well plate at a volume of 50 μl/well and then, the plate was incubated in the incubator at 37° C. for 2 hours. After discarding the liquid, the plates were blocked with 200 μl/well of blocking solution containing 5% skim milk (Bright Dairy, skim milk powder) in PBS, and incubated in the incubator at 37° C. for 2.5 hours or overnight at 4° C. (16-18 hours). After blocking, the blocking solution was discarded and the plate was washed 5 times with PBST buffer (PH7.4 PBS containing 0.05% tween-20). LAG-3-Fc fusion protein (SEQ ID NO:3, produced in-house) or LAG-3-mFc fusion protein (SEQ ID NO: 4, produced in-house) was diluted with sample diluent (PH7.4 PBS containing 1% BSA) to 1 μg/ml and was added to each well, 50 μl/well. Then the plate was incubated in the incubator at 37° C. for 1 h or overnight at 4° C. After incubation, the reaction solution in the plate was discarded, and the plate was washed with PBST for 6 times, and then was added with 50 μl/well of various concentrations of antibodies to be tested (hybridoma purified antibody or humanized antibody) which have been diluted with sample diluent, and the plate was incubated at 37° C. for 1 h. The plates was washed 5 times with PBST after incubation, and was added with 100 μl/well of goat anti-mouse (Jackson Immuno Research, Cat No. 115-035-003) or goat anti-human secondary antibody (Jackson Immuno Research, Cat No. 109-035-003) labeled with HRP, diluted in sample diluent, and the plate was incubated at 37° C. for 1 h.

T2 sequence (chain, as listed by the source limits assumed): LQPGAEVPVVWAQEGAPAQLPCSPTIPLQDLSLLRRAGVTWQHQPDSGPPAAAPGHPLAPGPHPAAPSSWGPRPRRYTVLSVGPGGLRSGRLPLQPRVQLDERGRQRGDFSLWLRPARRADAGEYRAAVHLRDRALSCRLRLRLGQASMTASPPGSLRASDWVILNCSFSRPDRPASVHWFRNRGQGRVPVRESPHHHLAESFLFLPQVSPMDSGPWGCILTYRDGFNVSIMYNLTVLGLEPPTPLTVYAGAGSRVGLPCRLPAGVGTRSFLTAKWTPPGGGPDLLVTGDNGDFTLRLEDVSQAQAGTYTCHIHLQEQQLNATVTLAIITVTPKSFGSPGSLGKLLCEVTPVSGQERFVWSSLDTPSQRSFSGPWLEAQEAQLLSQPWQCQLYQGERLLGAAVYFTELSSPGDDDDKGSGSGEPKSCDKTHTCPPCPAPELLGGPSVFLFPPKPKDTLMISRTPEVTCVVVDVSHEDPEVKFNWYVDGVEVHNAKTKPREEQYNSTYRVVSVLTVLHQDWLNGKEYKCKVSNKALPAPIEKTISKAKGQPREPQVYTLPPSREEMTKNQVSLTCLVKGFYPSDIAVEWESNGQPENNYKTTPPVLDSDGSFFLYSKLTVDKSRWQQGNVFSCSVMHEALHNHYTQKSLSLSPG

- Kd [1]: 0.0671 nM
- IC50 [2]: 0.239 nM
- EC50 [3]: 0.048 nM
B3: Hu229-017 (antibody, human IgG4 S228P, kappa, V domains shown)
VH: QVQLVQSGSELKKPGASVKVSCKASGYTFTTSGMSWVKQAPGQGLKWMGWINTYSGVPTYADDFKGRFVFSLDTSVSTAYLQISSLKAEDTATYFCARDNYDARDVYYYAMDYWGQGTTVTVSS
VL: DIQMTQSPSSLSASVGDRVTITCRASENIYSNLAWYQQKPGKAPKLLVYAATNLADGVPSRFSGSGSGTDYTLTISSLQPEDFATYYCQHFWITPWTFGGGTKVEIKR
notes: Humanized mAb229

- Kd [1]: 0.0729 nM
- IC50 [2]: 0.289 nM
- EC50 [3]: 0.068 nM
B5: Hu229-019 (antibody, human IgG4 S228P, kappa, V domains shown)
VH: B3 VH
VL: B3 VL with A43S, D70Q
notes: Humanized mAb229

- Kd [1]: 0.147 nM
- IC50 [2]: 0.346 nM
- EC50 [3]: 0.137 nM
B6: Hu303-010 (antibody, human IgG4 S228P, kappa, V domains shown)
VH: QVQLVQSGAEVKKPGASVKVSCKASGYTFTDYYMNWVRQAPGQRLEWMGVINPYNGDTAYNQKFKGRVTITVDKSASTAYMELSSLRSEDTAVYYCTRDDGYYDYYFDVWGQGTTVTVSS
VL: DIQMTQSPSSLSASVGDRVTITCRASQDIGSRLNWYQQKPGKAPKRLIYATSTLDSGVPSRFSGSRSGTDFTLTISSLQPEDFATYYCLQLASSPPTFGGGTKVEIKR
notes: Humanized mAb303

More lines, now with the values behind:

B1: Hu229-010 (antibody, human IgG4 S228P, kappa, V domains shown)
VH: B3 VH with K38R, T93V, F95Y
VL: B3 VL with D70Q
notes: Humanized mAb229
- Kd [1]: 0.0382 nM
- IC50 [2]: 0.453 nM
- EC50 [3]: 0.174 nM

B2: Hu229-013 (antibody, human IgG4 S228P, kappa, V domains shown)
VH: B3 VH with F95Y
VL: B3 VL
notes: also called LAG-3 antibody Hu229-013; LAG3 antibody Hu229-013
- Kd [1]: 0.0281 nM
- IC50 [2]: 0.39 nM
- EC50 [3]: 0.106 nM

B4: Hu229-015 (antibody, human IgG4 S228P, kappa, V domains shown)
VH: B3 VH with F95Y
VL: B3 VL with A43S, D70Q
notes: Humanized mAb229
- Kd [1]: 0.0459 nM
- IC50 [2]: 0.808 nM
- EC50 [3]: 0.156 nM
